B1: Polycystin-2 (Homo sapiens), Q13563 (parent)
chain: MVNSSRVQPQQPGDAKRPPAPRAPDPGRLMAGCAAVGASLAAPGGLCEQRGLEIEMQRIRQAAARDPPAGAAASPSPPLSSCSRQAWSRDNPGFEAEEEEEEVEGEEGGMVVEMDVEWRPGSRRSAASSAVSSVGARSRGLGGYHGAGHPSGRRRRREDQGPPCPSPVGGGDPLHRHLPLEGQPPRVAWAERLVRGLRGLWGTRLMEESSTNREKYLKSVLRELVTYLLFLIVLCILTYGMMSSNVYYYTRMMSQLFLDTPVSKTEKTNFKTLSSMEDFWKFTEGSLLDGLYWKMQPSNQTEADNRSFIFYENLLLGVPRIRQLRVRNGSCSIPQDLRDEIKECYDVYSVSSEDRAPFGPRNGTAWIYTSEKDLNGSSHWGIIATYSGAGYYLDLSRTREETAAQVASLKKNVWLDRGTRATFIDFSVYNANINLFCVVRLLVEFPATGGVIPSWQFQPLKLIRYVTTFDFFLAACEIIFCFFIFYYVVEEILEIRIHKLHYFRSFWNCLDVVIVVLSVVAIGINIYRTSNVEVLLQFLEDQNTFPNFEHLAYWQIQFNNIAAVTVFFVWIKLFKFINFNRTMSQLSTTMSRCAKDLFGFAIMFFIIFLAYAQLAYLVFGTQVDDFSTFQECIFTQFRIILGDINFAEIEEANRVLGPIYFTTFVFFMFFILLNMFLAIINDTYSEVKSDLAQQKAEMELSDLIRKGYHKALVKLKLKKNTVDDISESLRQGGGKLNFDELRQDLKGKGHTDAEIEAIFTKYDQDGDQELTEHEHQQMRDDLEKEREDLDLDHSSLPRPMSSRSFPRSLDDSEEDDDEDSGHSSRRRGSISSGVSYEEFQVLVRRVDRMEHSIGSIVSKIDAVIVKLEIMERAKLKRREVLGRLLDGVAEDERLGRDSEIHREQMERLVREELERWESDDAASQISHGLGTPVGLNGQPRPRSSRPSSSQSTEGMEGAGGNGSSNVHV

Variants of: B1
Details: with pkd1_human PKD1, P98161
pkd1_human PKD1, P98161, sequence (P98161 whole entry, looked up): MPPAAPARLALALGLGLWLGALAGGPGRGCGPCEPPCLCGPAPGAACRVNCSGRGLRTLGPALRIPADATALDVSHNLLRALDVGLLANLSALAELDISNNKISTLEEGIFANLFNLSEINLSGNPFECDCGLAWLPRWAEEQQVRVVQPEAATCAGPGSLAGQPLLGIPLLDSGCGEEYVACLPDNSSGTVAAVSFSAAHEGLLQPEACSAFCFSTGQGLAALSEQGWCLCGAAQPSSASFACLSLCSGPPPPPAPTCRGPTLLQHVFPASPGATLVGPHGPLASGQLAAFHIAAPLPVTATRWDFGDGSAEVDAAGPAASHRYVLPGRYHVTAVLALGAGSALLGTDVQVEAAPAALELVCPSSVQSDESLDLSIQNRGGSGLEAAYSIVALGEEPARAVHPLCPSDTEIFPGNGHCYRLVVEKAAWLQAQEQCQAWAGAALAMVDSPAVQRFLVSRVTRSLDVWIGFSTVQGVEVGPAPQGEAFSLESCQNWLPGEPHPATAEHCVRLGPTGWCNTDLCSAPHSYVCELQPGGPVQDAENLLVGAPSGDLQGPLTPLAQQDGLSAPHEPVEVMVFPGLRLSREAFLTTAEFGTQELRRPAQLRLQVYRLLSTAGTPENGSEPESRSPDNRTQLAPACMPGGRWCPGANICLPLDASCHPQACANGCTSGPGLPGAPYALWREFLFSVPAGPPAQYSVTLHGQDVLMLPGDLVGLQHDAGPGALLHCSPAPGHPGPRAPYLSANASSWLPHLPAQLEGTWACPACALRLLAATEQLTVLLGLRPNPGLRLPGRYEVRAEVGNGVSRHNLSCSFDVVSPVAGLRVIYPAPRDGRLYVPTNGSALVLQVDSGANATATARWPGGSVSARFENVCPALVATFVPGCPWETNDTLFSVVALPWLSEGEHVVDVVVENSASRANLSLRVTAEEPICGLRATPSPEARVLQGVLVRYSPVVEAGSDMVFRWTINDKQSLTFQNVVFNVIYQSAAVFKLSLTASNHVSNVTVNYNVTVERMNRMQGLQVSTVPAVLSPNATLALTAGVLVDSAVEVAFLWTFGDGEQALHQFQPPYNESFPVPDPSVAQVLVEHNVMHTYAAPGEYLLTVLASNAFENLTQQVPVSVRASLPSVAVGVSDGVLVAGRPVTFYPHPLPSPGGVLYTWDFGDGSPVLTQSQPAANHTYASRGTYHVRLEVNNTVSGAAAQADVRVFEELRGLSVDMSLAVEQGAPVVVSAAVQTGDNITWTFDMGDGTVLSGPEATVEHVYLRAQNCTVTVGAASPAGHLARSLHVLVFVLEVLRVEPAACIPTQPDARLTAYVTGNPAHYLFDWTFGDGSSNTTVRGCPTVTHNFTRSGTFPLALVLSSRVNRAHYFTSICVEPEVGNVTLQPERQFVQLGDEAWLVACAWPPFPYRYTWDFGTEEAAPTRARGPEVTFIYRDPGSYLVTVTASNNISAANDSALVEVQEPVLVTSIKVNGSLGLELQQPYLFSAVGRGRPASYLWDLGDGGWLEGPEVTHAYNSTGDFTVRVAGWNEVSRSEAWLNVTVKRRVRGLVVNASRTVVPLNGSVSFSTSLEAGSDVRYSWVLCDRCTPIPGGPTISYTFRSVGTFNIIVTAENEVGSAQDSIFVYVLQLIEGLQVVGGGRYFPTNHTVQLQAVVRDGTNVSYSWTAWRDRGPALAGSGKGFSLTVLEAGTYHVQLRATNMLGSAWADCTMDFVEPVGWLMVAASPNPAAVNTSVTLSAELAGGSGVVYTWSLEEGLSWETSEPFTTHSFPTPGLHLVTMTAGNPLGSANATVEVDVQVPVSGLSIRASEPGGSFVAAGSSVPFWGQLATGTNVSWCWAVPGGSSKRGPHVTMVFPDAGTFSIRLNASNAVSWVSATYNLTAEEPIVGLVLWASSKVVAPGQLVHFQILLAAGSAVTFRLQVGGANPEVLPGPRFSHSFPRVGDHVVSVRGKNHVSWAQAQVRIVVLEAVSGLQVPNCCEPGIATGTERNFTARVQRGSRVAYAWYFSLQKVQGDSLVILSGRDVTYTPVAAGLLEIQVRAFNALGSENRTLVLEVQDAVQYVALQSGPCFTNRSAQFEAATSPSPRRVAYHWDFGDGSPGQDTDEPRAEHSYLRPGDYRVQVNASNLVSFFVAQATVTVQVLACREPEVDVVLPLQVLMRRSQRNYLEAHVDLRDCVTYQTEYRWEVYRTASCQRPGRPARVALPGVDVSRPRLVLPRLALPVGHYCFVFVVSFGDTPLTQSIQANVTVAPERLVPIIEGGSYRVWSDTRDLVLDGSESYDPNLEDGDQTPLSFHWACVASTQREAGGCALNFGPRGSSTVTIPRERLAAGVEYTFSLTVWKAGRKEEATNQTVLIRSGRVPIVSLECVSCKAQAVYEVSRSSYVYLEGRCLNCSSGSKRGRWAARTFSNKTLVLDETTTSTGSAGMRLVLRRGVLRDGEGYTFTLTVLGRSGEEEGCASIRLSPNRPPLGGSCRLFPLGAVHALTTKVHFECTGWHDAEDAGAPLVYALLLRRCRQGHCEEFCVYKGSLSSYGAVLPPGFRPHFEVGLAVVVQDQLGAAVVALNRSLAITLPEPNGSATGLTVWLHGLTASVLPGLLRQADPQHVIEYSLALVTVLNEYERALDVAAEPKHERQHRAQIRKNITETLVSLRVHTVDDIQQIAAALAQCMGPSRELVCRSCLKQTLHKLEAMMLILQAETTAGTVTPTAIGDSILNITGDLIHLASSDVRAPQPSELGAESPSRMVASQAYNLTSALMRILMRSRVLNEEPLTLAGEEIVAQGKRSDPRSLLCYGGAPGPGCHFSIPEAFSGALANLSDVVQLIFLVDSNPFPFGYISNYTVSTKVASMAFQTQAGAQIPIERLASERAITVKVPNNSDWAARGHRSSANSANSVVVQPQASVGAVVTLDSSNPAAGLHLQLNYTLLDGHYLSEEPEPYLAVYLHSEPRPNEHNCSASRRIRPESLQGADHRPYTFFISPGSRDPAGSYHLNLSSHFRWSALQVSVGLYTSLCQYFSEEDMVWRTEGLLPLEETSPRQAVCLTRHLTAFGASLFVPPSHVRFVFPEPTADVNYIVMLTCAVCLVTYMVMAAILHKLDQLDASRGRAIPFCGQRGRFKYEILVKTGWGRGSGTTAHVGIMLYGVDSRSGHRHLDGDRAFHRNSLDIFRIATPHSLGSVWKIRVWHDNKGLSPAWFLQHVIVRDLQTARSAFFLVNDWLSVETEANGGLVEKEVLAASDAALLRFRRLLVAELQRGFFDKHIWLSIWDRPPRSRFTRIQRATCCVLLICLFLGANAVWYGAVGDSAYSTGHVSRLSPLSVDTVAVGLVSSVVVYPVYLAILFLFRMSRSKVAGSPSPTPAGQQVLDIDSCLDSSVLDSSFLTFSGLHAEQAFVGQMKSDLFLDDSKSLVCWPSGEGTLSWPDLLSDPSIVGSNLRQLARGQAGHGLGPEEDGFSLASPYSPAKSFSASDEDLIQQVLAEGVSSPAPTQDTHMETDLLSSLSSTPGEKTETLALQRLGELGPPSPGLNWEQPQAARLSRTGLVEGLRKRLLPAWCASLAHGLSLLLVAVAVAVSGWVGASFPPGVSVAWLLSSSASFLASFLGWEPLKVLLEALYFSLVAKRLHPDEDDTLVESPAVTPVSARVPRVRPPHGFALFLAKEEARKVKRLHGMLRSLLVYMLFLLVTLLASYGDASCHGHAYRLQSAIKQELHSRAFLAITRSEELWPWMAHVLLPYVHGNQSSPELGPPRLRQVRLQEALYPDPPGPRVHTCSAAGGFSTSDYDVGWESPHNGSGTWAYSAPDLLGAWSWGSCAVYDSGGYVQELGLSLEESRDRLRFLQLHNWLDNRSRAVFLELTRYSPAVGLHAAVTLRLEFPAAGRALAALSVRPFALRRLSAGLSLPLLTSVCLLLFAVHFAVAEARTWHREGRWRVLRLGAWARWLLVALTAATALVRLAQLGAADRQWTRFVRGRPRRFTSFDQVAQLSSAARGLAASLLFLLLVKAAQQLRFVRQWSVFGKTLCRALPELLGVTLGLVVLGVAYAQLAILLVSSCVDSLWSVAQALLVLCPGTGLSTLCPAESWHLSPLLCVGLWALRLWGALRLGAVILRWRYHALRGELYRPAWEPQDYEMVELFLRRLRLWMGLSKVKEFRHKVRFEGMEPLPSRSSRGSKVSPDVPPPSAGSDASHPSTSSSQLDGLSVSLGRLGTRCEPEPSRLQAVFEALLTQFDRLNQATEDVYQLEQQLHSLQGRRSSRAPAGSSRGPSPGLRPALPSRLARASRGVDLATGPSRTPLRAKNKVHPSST

Effect of a mutation on the interaction, disrupting interaction:
I860A
I853A
L867A
V846A

— IntAct's records for PubMed 20168298
